# Laboratory results reported in article PMC6511404 (Biochemistry, 2019).
# Target: the molecule itself
# Assay: SEC
protein,measurement,value
recombinant N-terminal cleavable His-tagged E. coli enolase (enzyme) MSKIVKIIGREIIDSRGNPTVEAEVHLEGGFVGMAAAPSGASTGSREALELRDGDKSRFLGKGVTKAVAAVNGPIAQALIGKDAKDQAGIDKIMIDLDGTENKSKFGANAILAVSLANAKAAAAAKGMPLYEHIAELNGTPGKYSMPVPMMNIINGGEHADNNVDIQEFMIQPVGAKTVKEAIRMGSEVFHHLAKVLKAKGMNTAVGDEGGYAPNLGSNAEALAVIAEAVKAAGYELGKDITLAMDCAASEFYKDGKYVLAGEGNKAFTSEEFTHFLEELTKQYPIVSIEDGLDESDWDGFAYQTKVLGDKIQLVGDDLFVTNTKILKEGIEKGIANSILIKFNQIGSLTETLAAIKMAKDAGYTAVISHRSGETEDATIADLAVGTAAGQIKTGSMSRSDRVAKYNQLIRIEEALGEKAPYNGRKEIKGQA,stoichiometry N,2
